From patent US20230391844

Key:
[1] = tested on: mAb-PCL(15AA)-IL2-PCL(15AA)-IL2Rα
[2] = tested on: mAb-PCL(15AA)-IL2-PCL(20AA)-IL2Rα

recombinant human uPA (R&D Cat #1310-SE)
release of free IL2 after uPA digestion (reducing SDS-PAGE, western blot probed with biotinylated anti-hIL2) [1]: Protease digestion of the IL2 proproteins with uPA resulted in the release of free IL2 from both IL2 proproteins | release of free IL2 after uPA digestion (reducing SDS-PAGE, western blot probed with biotinylated anti-hIL2) [2]: the IL2 proprotein construct comprising a 20AA linker between IL2 and IL2Rα domains displayed a more complete linker digestion and IL2 release relative to the construct comprising a 15AA linker between IL2 and IL2Rα
